{IBFQ} = Iowa Black FQ quencher
Columns and labels:
[1] = tested on: sgTTR-G211-5FAM; experiment: Tm value between sgRNA and ssODN by fluorescence quenching method; format: physicochemical; conditions: with sgTTR-G211-5FAM in Cas9 RNP; FIG. 21(B); n=3
Method: To measure the Tm value between sgRNA and ssODN in the RNP complex using the fluorescence quenching method, a FAM-modified sgRNA whose 5′ end was modified with the fluorescent substance FAM and a 20-base-long IBFQ-modified ssODN whose 3′ end was modified with the quenching substance IBFQ were used.
Specifically, IBFQ-modified ssODN (5 equivalents relative to RNP) was added to Cas9 RNP containing FAM-modified sgRNA (final RNP concentration: 2.5 μM) to form an RNP-ssODN complex. The resulting solution (10 μL) was incubated at 10° C., after which the temperature was increased by 1° C. at 10 second intervals. The fluorescence intensity was measured at each temperature from 11 to 70° C. using a thermal cycler (“Dice® Real Time System III”, TaKaRa Bio Inc.). The temperature at which the fluorescence intensity was maximized was taken as the measured Tm value (° C.).

[2] = Metabolic evaluation: lipid amount in the liver (LC/MS); format: in vivo, mouse; conditions: FIG. 4; Fluc mRNA-loaded LNP iv 0.5 mg mRNA/kg, BALB/c mice; 0.5, 4, 24 hours
Method: For liquid chromatography-mass spectrometry (LC/MS) for lipid quantification, liver samples stored at −80° C. prior to analysis were used. Mice were intravenously injected with lipid nanoparticles (0.5 mg RNA/kg body weight) and then liver tissue was harvested.
The tissue was homogenized in 200 μL of water, and the resulting tissue homogenate (50 μL) was subjected to an extraction with 400 μL of acetonitrile/isopropanol (50:50 (v/v)). The extract was centrifuged (4000 rpm, 10 min), the supernatant was filtered, and the filtrate was diluted 50-fold with water/acetonitrile/isopropanol (1:8:8 (v/v)) and transferred to a vial for LC/MS analysis using an Accucore. LC/MS was performed under the following conditions. The parent lipids and their predicted metabolites were detected under optimized conditions. Each lipid molecule was monitored using the following masses: [M+H]^+->916 (CL4H6), 864 (CL4F6), 982 (CL4F10-b-7), 752 (CL4F10-e-2). […]
Specifically, lipid nanoparticles encapsulating Fluc mRNA (Fluc mRNA-loaded lipid nanoparticles) were intravenously injected into BALB/c mice (female, 4 weeks old) at a dose of 0.5 mg mRNA/kg body weight. The mice were euthanized 0.5 hours, 4 hours, or 24 hours after the intravenous injection, and the amount of lipid derived from each lipid nanoparticle in the liver was measured.

[3] = Encapsulation rate of lipid nanoparticles (Ribogreen); format: physicochemical
Method: The encapsulation rate of the lipid nanoparticles was calculated by measuring the amount of encapsulated nucleic acid (the amount of ssODN in the case of RNP-ssODN) using an RNA intercalator Ribogreen (manufactured by Life Technologies).

[4] = Average particle diameter, PdI and zeta potential of lipid nanoparticles (dynamic light scattering); format: physicochemical
Method: The mean particle diameter (number average value), ζ-mean particle diameter, and polydispersity index (PdI) of the lipid nanoparticles in PBS(−) (pH 7.4), as well as the zeta potential in 10 mM HEPES buffer (pH 7.4), were measured using an analyzing device, Zetasizer Nano ZS ZEN3600 (Malvern), which utilizes dynamic light scattering.

[5] = tested on: TTR gene; experiment: Measurement of TTR-KO activity (serum TTR protein, ELISA); format: in vivo, mouse
Outline: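 Female BALB/c mice (4 weeks) received Cas9/sgTTR-RNP-loaded lipid nanoparticles i.v. at the indicated doses. Serum TTR protein measured by ELISA one week later. TTR-KO activity expressed as serum TTR (%) relative to untreated mice set at 100%.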

[6] = tested on: dsDNA from the TTR locus; experiment: In vitro DNA cleavage activity; format: biochemical, mouse; conditions: n=3
Description: Genomic DNA was collected and purified from BALB/c mouse liver tissue using a commercially available nucleic acid extraction kit (NucleoSpin Tissue, MACHEREY-NAGEL) according to the manufacturer's protocol.
The dsDNA from the TTR locus was amplified by PCR (using KAPA HiFi HotStart DNA polymerase (KAPA Biosystems)) using the genomic DNA as a template and the primer set shown in Table 4, and purified using a commercially available nucleic acid purification kit (ISOSPIN PCR Product, Nippon Gene).
The ssODN (5 equivalents relative to […]) was added to Cas9/sgTTR-RNP to form a TTR-RNP-ssODN complex. […] The reaction solution was then heated at 65° C. for 5 minutes to inactivate Cas9-RNP, and the dsDNA was then subjected to electrophoresis on a 3% agarose gel at 100 V for 40 minutes. After electrophoresis, the gel was stained (GelRed, Biotium) and visualized using a fluorescent/visible light gel imaging system (Printgraph CMOS I, ATTO). Bands were quantified using image analysis software (ImageJ).
DNA cleavage was calculated using the following formula: in the formula, Int_full and Int_cleaved indicate the intensities derived from full length (uncleaved) and cleaved DNA, respectively.

[7] = tested on: TTR gene; experiment: T7E1 assay on liver genomic DNA; format: in vivo, mouse; conditions: 2 mg RNP/kg iv two consecutive days, one week after final injection, CL4H6 LNP, n=3
Method: Lipid nanoparticles encapsulating TTR-RNP-ssODN complexes (TTR-RNP-ssODN-loaded lipid nanoparticles) were intravenously injected to BALB/c mice (female, 4 weeks old) at 2 mg RNP/kg body weight for two consecutive days. One week after the last injection, the mice were euthanized and liver tissues were harvested, flash frozen in liquid nitrogen, and stored at −80° C.
Genomic DNA was extracted and purified from the collected liver tissue using a commercially available nucleic acid extraction kit (NucleoSpin Tissue, MACHEREY-NAGEL) according to the manufacturer's protocol.
The T7E1 assay was performed using a commercially available genome editing detection kit (Alt-R®, Integrated DNA Technologies). The dsDNA treated with T7E1 was subjected to agarose gel electrophoresis in the same manner as in the above described <Measurement of In vitro DNA Cleavage Activity>, and the gel after electrophoresis was stained and the bands were quantified.

[8] = Evaluation of biodistribution (fluorescently labeled RNP-ssODN); format: in vivo, mouse; conditions: mice iv 2 mg RNP/kg, 1 hour; labeled TTR-RNP-ssODN in CL4H6 LNP (ssODN(−): free RNP, no LNP)
Method: For fluorescent labeling of lipid nanoparticles, the RNP-ssODN solution described above was mixed with a three-fold molar amount of a fluorescent molecule (DyLight 650 NHS ester) in DMSO and incubated for 30 min at ambient temperature in the dark. Unreacted fluorescent molecules were removed by ultrafiltration (Amicon Ultra-0.5, MWCO 3 kDa, Millipore).
Lipid nanoparticles encapsulating the obtained fluorescently labeled RNP-ssODN (fluorescently labeled RNP-ssODN-loaded lipid nanoparticles) were intravenously injected into BALB/c mice (female, 4 weeks old) at 2 mg RNP/kg body weight. One hour after intravenous injection, the mice were euthanized and various tissues, including blood, were collected. The collected blood was immediately diluted with 1% sodium dodecyl sulfate (SDS) solution. The collected tissues were immediately weighed and then homogenized in 1% sodium dodecyl sulfate (SDS) solution. The resulting homogenates were transferred to a black 96-well plate, and fluorescence was measured using a microplate reader (VarioskanLux, Thermo Fisher Scientific) at settings of λex=652 nm and λem=672 nm. Calibration curves were generated using fluorescently labeled RNP-ssODN-loaded lipid nanoparticles and blood or tissue homogenates similarly prepared from untreated mice. Biodistribution was expressed as the percentage of injected dose per tissue or blood (% injected dose).

[9] = TTR-RNP-ssODN-loaded LNP (ssODN-TTR_3-40%), cationic lipid/DSPC/cholesterol/PEG-DMG 50/10/40/3.5 mol%, Table 8
[10] = TTR-RNP-ssODN-loaded LNP, sgTTR-G211, CL4H6/DSPC/cholesterol/PEG-DMG 50/10/40/3.5 mol%, Table 11
[11] = TTR-KO activity in mice, TTR-RNP-ssODN-loaded LNP CL4H6/DSPC/cholesterol/PEG-DMG 50/10/40/3.5 mol%, sgTTR-G211 (TTR_3) or sgTTR-G269 (TTR_4)

For “ssODN-80%-3IBFQ: IBFQ bound to the 3′ end of ssODN-80% (SEQ ID NO 22), 80% matched with the ssON-paired region (DNA AACTGTAGACGTGGCTGTTT; 3' {IBFQ}, sugars by position and backbone not given here)”, the “Tm value (fluorescence quenching)” value [1] was 62 °C.

For `CCCCC(CC)CCCCC(=O)OCCCCCCC(O)(CCCCCCOC(=O)CCCCC(CC)CCCC)CCCCN(CCC)CCC` (stereo not shown) [CL4F10-e-2, 7-(4-(dipropylamino)butyl)-7-hydroxytridecane-1,13-diylbis(6-ethyldecanoate)], the “amount of lipid in the liver (metabolism)” value [2] was “most of it was degraded within 24 hours after administration”.

Work on `CCCCCCCC/C=C\CCCCCCCC(=O)OCCCCCCC(O)(CCCCCCOC(=O)CCCCCCC/C=C\CCCCCCCC)CCCCN(C(C)C)C(C)C` [CL4H6, 7-(4-(diisopropylamino)butyl)-7-hydroxytridecane-1,13-diyl dioleate, reference compound] yielded an Encapsulation rate [3, 9] of 83.5%, a Number-average particle diameter [4, 9] of 80.1 nm and a PdI [4, 9] of 0.254. For the same molecule, the ζ-average [4, 9] was 136.5 nm, the ζ-potential [4, 9] was 2.83 mV and the “amount of lipid in the liver (metabolism)” value [2] was “almost completely disappeared from the liver 24 hours after administration”.

In the case of “ssODN-40%-3IBFQ: IBFQ bound to the 3′ end of ssODN-40% (SEQ ID NO 23), 40% matched with the ssON-paired region (DNA AAAAAAAGACGTGGAAAATT; 3' {IBFQ}, sugars by position and backbone not given here)”, the “Tm value (fluorescence quenching)” value [1] is reported as 32 °C.

B1: ssODN-TTR_3-40%: ssODN pairing with sgTTR-G211, 40% matched; SEQ ID NO 7 (nucleic acid)
DNA: AAAAAAAAAAAAAAAAAAAAAAAAAAAAAAAAAAAAAAAAAAAAAAAAAAAAAAAAAAAAAAAGACGTGGAAAATTAAAAAAAAAAAAAAAAAAAAAAAAAAAAAAAAAAAAAAAAAAAAAAAAAAAAAAAA
B1 gave an Encapsulation rate [3, 10] of 86.0%, a Number-average particle diameter [4, 10] of 85.5 nm and a PdI [4, 10] of 0.094. The ζ-average [4, 10] was 120.1 nm, the ζ-potential [4, 10] was 2.54 mV and the “reduction of serum TTR protein concentration compared to untreated mice” value ([5]; 2 mg RNP/kg iv two consecutive days, one week after final injection, CL4H6 LNP) was 81%. For the same molecule, the “serum TTR activity / gene knockout activity” value ([5]; FIG. 23, CL4H6 LNP prepared at 4° C., 2.0 mg RNP/kg, 7 days) was “low serum TTR activity, exhibiting sufficient gene knockout activity”, the “KO (%) 1st test” value [5, 11] was 47.8% and the “KO (%) 2nd test” value [5, 11] was 56.5%. For the same molecule, the “TTR-KO activity (ranking among ssODNs)” value ([5]; Table 10, CL4H6 LNP, per sgRNA) was “highest TTR-KO activity”, the “in vitro DNA cleavage activity” value ([6]; FIG. 7, TTR-RNP-ssODN, sgTTR-G211, 37° C. 30 min) was “about the same as that of TTR-RNP-ssODN containing ssODN-TTR_3-0%” and the “relative DNA cleavage activity at 37° C.” value ([6]; FIG. 22(A), sgTTR-G211 RNP, activity without ssODN = 100%) was “about the same as that of the RNP containing ssODN-TTR_3-0%”. The “relative DNA cleavage activity at 15° C.” value ([6]; FIG. 22(B), sgTTR-G211 RNP, activity without ssODN = 100%) was “higher than that of RNP containing ssODN-TTR_3-80%, but was clearly lower than that of RNP containing ssODN-TTR_3-0%”, the “KO activity at the DNA level” value [7] was 27% and the ID %/tissue blood [8] was 7.57 ID %/tissue. It also gave an ID %/tissue kidney [8] of 0.14 ID %/tissue, an ID %/tissue liver [8] of 42.28 ID %/tissue and an ID %/tissue lung [8] of 0.26 ID %/tissue. For the same molecule, the ID %/tissue spleen [8] was 3.49 ID %/tissue.
